# Assay results published in patent US20100311648A1.
# Tests used:
# [1] = biological target: melanocortin-1 receptor (mouse (B-16 melanoma cells); in some instances human (hMC1-R)) (UniProt Q01727); assay: [I125]-NDP-α-MSH competition, MC1-R membranes
# [2] = biological target: human melanocortin-4 receptor (human) (UniProt P32245); assay: [I125]-NDP-α-MSH competition, hMC4-R HEK-293 membranes
# [3] = biological target: human melanocortin-4 receptor (human) (UniProt P32245); assay: cell-based or functional assay
# Sequence of human melanocortin-4 receptor (human) (P32245 whole entry): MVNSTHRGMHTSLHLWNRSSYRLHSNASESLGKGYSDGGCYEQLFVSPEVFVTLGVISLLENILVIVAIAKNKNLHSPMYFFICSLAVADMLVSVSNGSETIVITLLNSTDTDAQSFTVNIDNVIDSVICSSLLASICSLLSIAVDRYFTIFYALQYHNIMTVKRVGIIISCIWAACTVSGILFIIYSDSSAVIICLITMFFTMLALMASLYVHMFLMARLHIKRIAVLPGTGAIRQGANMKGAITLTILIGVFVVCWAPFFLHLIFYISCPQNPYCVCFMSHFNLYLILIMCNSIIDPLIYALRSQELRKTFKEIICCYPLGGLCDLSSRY
# Sequence of melanocortin-1 receptor (mouse (B-16 melanoma cells); in some instances human (hMC1-R)) (Q01727 whole entry): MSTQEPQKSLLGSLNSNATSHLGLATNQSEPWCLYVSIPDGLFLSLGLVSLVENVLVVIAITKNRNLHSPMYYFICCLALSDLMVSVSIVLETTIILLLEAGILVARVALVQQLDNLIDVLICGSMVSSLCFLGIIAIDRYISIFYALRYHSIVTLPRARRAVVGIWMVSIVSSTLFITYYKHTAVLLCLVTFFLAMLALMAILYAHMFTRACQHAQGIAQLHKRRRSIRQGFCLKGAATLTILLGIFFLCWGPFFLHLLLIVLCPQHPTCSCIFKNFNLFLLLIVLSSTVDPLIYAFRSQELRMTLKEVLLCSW
Substance,Ki [1] [nM],Ki [2] [nM],"EC50, cAMP, 0.1 ng/mL Doxycycline [3] [nM]","EC50, cAMP, 10 ng/mL Doxycycline [3] [nM]","Intrinsic Activity, cAMP, 0.1 ng/mL Doxycycline [3] [%]","Intrinsic Activity, cAMP, 10 ng/mL Doxycycline [3] [%]"
Ac-Arg-cyclo(Glu-Dab(Acetyl)-D-Phe(2-Cl)-Arg-Trp-Orn)-NH2 (peptide),30,11,5,0.3,41,98
Ac-Arg-cyclo(Glu-Dab-D-Phe(2-CF3)-Arg-Trp-Orn)-NH2 (peptide),,0.6,0.125,0.06,85,96
Ac-Arg-cyclo(Glu-Dab-D-Phe(2-CN)-Arg-Trp-Orn)-NH2 (peptide),,45,34,0.5,64,97
Ac-Arg-cyclo(Glu-Dab-D-Phe(2-Cl)-Arg-Trp-Orn)-NH2 (peptide),1,,0.34,0.045,91,96
Ac-Arg-cyclo(Glu-Dab-D-Phe(2-F)-Arg-Trp-Orn)-NH2 (peptide),0.8,0.7,0.09,0.035,91,89
Ac-Arg-cyclo(Glu-Dab-D-Phe(2-NO2)-Arg-Trp-Orn)-NH2 (peptide),,11,,0.2,78,93
"Ac-Arg-cyclo(Glu-Dab-D-Phe(3,4,5-triF)-Arg-Trp-Orn)-NH2 (peptide)",,0.667,0.7,0.33,37,97
"Ac-Arg-cyclo(Glu-Dab-D-Phe(3,4-diOMe)-Arg-Trp-Orn)-NH2 (peptide)",,,75,2,23,94
"Ac-Arg-cyclo(Glu-Dab-D-Phe(3,5-diF)-Arg-Trp-Orn)-NH2 (peptide)",,2,0.95,0.12,64,95
Ac-Arg-cyclo(Glu-Dab-D-Phe(3-CF3)-Arg-Trp-Orn)-NH2 (peptide),9,0.95,8,0.4,16,93
Ac-Arg-cyclo(Glu-Dab-D-Phe(3-CN)-Arg-Trp-Orn)-NH2 (peptide),43,33,37,2,29,100
Ac-Arg-cyclo(Glu-Dab-D-Phe(3-F)-Arg-Trp-Orn)-NH2 (peptide),2,2,0.45,0.17,77,94
Ac-Arg-cyclo(Glu-Dab-D-Phe(3-Me)-Arg-Trp-Orn)-NH2 (peptide),,0.4,0.42,0.22,35,97
Ac-Arg-cyclo(Glu-Dab-D-Phe(3-NO2)-Arg-Trp-Orn)-NH2 (peptide),,0.7,2,0.55,17,95
Ac-Arg-cyclo(Glu-Dab-D-Phe(4-CF3)-Arg-Trp-Orn)-NH2 (peptide),,0.06,,,0.5,53
Ac-Arg-cyclo(Glu-Dab-D-Phe(4-CN)-Arg-Trp-Orn)-NH2 (peptide),5,0.833,0.3,0.135,48,100
Ac-Arg-cyclo(Glu-Dab-D-Phe(4-Me)-Arg-Trp-Orn)-NH2 (peptide),,0.145,0.165,0.2,16,90
Ac-Arg-cyclo(Glu-Dab-D-Phe(4-NO2)-Arg-Trp-Orn)-NH2 (peptide),,0.45,0.7,0.45,15,99
Ac-Arg-cyclo(Glu-Dab-D-Phe(4-Ph)-Arg-Trp-Orn)-NH2 (peptide),,0.5,,0.8,14,100
Ac-Arg-cyclo(Glu-Dap-D-Phe(2-Cl)-Arg-Trp-Orn)-NH2 (peptide),,9,16,0.47,23,84
Ac-Arg-cyclo(Glu-Dap-D-Phe(3-Cl)-Arg-Trp-Orn)-NH2 (peptide),,4,,0.95,6,89
Ac-Arg-cyclo(Glu-Hyp-D-Phe(2-F)-Arg-Trp-Orn)-NH2 (peptide),53,,1,0.08,57,90
Ac-Arg-cyclo(Glu-Orn-D-Phe(3-Cl)-Arg-Trp-Orn)-NH2 (peptide),,1,0.95,0.14,36,93
Ac-D-Arg-cyclo(Orn-His-D-Phe(2-F)-Arg-Trp-Glu)-NH2 (peptide),,0.95,0.13,0.13,86,90

# Now from value to substance:
Ki [1] [nM],Ki [2] [nM],"EC50, cAMP, 0.1 ng/mL Doxycycline [3] [nM]","EC50, cAMP, 10 ng/mL Doxycycline [3] [nM]","Intrinsic Activity, cAMP, 0.1 ng/mL Doxycycline [3] [%]","Intrinsic Activity, cAMP, 10 ng/mL Doxycycline [3] [%]",Substance
0.5,0.055,,0.245,11,100,"Ac-Arg-cyclo(Glu-Dab-D-Phe(2,4-diCl)-Arg-Trp-Orn)-NH2 (peptide)"
,0.085,,0.5,8,97,"Ac-Arg-cyclo(Glu-Dab-D-Phe(2,4-diMe)-Arg-Trp-Orn)-NH2 (peptide)"
,0.5,0.14,0.085,83,97,Ac-Arg-cyclo(Glu-Dab-D-Phe(2-Me)-Arg-Trp-Orn)-NH2 (peptide)
0.2,0.055,,0.38,5,92,"Ac-Arg-cyclo(Glu-Dab-D-Phe(3,4-diCl)-Arg-Trp-Orn)-NH2 (peptide)"
,0.3,0.125,0.12,74,90,"Ac-Arg-cyclo(Glu-Dab-D-Phe(3,4-diF)-Arg-Trp-Orn)-NH2 (peptide)"
1,,0.56,0.095,36,99,Ac-Arg-cyclo(Glu-Dab-D-Phe(3-Cl)-Arg-Trp-Orn)-NH2 (peptide)
,,1,0.065,64,100,Ac-Arg-cyclo(Glu-Dab-D-Phe(3-OMe)-Arg-Trp-Orn)-NH2 (peptide)
0.3,0.08,0.07,0.16,28,100,Ac-Arg-cyclo(Glu-Dab-D-Phe(4-Cl)-Arg-Trp-Orn)-NH2 (peptide)
,48,29,0.6,35,94,Ac-Arg-cyclo(Glu-Dab-D-Phe(4-NH2)-Arg-Trp-Orn)-NH2 (peptide)
,4,,,2,9,Ac-Arg-cyclo(Glu-Dab-D-Phe(4-tBu)-Arg-Trp-Orn)-NH2 (peptide)
,75,48,0.55,71,87,Ac-Arg-cyclo(Glu-Dab-D-Tyr-Arg-Trp-Orn)-NH2 (peptide)
545,,,4,6,93,Ac-Arg-cyclo(Glu-Phe(3-C(═O)-NH2)-D-Phe(2-Cl)-D-Phe-Arg-Trp-Orn)-NH2 (peptide)
,0.3,0.31,0.373,36,100,Ac-Arg-cyclo(Glu-Ser(Bzl)-D-Phe(2-Cl)-Arg-Trp-Orn)-NH2 (peptide)
